Values joined by “and” are separate entries in the source; they are usually repeats but may differ in a detail not shown here. Identical values can stand only once. One block for each compound: values may come before it.
Experiments:
[1] = Gel electrophoresis of active agent after droplet generation; format: physicochemical; conditions: after droplet generation with the device
From the text: To determine the stability of active agent after droplet generation, the generated stream of droplets including the active agent is collected and the molecular weight of the active agent is verified using gel electrophoresis.

[2] = Anderson Cascade Impactor testing of droplet delivery device with Albuterol sulfate (Example B); format: physicochemical
[3] = system: patients with cystic fibrosis; conditions: cited from earlier work
[4] = Enbrel stability after aerosol generation, size exclusion chromatography; format: physicochemical; conditions: for Peak 1 Peak Area % / Peak 2 Peak Area % / Peak 3 Peak Area % / Peak 4 Peak Area % / Peak 5 Peak Area %: replicate samples
From the text: Alternately, to determine the stability of active agent after droplet generation, the generated stream of droplets including the active agent may be collected and […] may be employed to monitor for any changes in large molecule aggregation and protein fragment content. Soluble protein aggregates and protein fragment content may be calculated by comparing respective peak area under the SEC-HPLC curve of dispensed protein solutions with controls (solutions remaining in the device reservoir). Drug solutions for testing include Enbrel, (ENBREL® single-use prefilled syringes in 25 mg (0.51 mL of a 50 mg/mL solution of etanercept), and insulin, (Humalog, 200 units/ml, 3 ml […] is performed with a YarraTM 3 μm SEC-2000 LC column 300×7.8 mm, SecurityGuard cartridge kit and SecurityGuard cartridges GFC-2000, 4×3 mm ID. Fifty microliters of Enbrel from the syringe (ENBREL® single-use prefilled syringes in 25 mg/0.51 mL of a 50 mg/mL solution of etanercept) is diluted (4:1) (4 parts, 200 mcl of the mobile phase buffer solution to 1 part, 50 mcl Enbrel from syringe). Fifty microliter of the diluted Enbrel is injected and separation was performed at a flow rate of 1.0 ml/min. The mobile phase buffer system included a PHOS. BUFF. SALINE. […] UV detection is performed at 280 nm. […] An ampule/cartridge is filled with […] of Enbrel® (50 mg/ml) diluted 4:1 (10 mg/ml)(4 parts (200 mcl) of PBS and 0.025% NaN3 and 1 part (50 mcl of Enbrel solution from the syringe). After 20 actuations and aerosolization, about 150 mcl of the aerosolized Enbrel solution is recovered and collected in the polypropylene tube located below the ejector mechanism. The control consists of the diluted Enbrel solution, 50 mcl of which is injected into the SEC column for analysis.

[5] = Insulin stability after aerosol generation, size exclusion chromatography; format: physicochemical
From the text: Alternately, to determine the stability of active agent after droplet generation, the generated stream of droplets including the active agent may be collected and SEC-HPLIC may be employed to monitor for any changes in large molecule aggregation and protein fragment content. Soluble protein aggregates and protein fragment content may be calculated by comparing respective peak area under the SEC-HPLC curve of dispensed protein solutions with controls (solutions remaining in the device reservoir).
Drug solutions for testing include Enbrel, (ENBREL® single-use prefilled syringes in 25 mg (0.51 mL of a 50 mg/mL solution of etanercept), and insulin, (Humalog, 200 units/ml, 3 ml kwikpens)
To calculate and compare effects of droplet generation through an ejector mechanism of the disclosure, the total area under the curve of the UV signal at 280 nm versus elution time for controls is compared with the aerosolized samples, which is set to 100%.
Aerosol collection and SEC is performed in a similar fashion as for the Enbrel analysis and aerosol collection.
Fifty microliters of the collected aerosol spray is injected onto the SEC column for analysis, while 50 mcl of the Kwikpen insulin solution is injected onto the SEC column for control samples.

[6] = Albuterol 0.5%, 28.3 lpm, 10 actuations
[7] = aerosolized, average of S1 and S2

Compound: adalimumab
change in electrophoretic mobility / molecular weight of post-aerosol active agent versus control [1]: negligible change

Compound: bevacizumab
change in electrophoretic mobility / molecular weight of post-aerosol active agent versus control [1]: negligible change

droplets of an average diameter of less than about 5 μm [2, 6]: over 75% | droplets with an average diameter of less than about 4 μm [2, 6]: over 70% | Cum. % < ([2]; FILTER): 0.00% | Cum. % > ([2]; FILTER): 100.00% | Cum. % < ([2]; Pre-separator, cut diam. 10 μm): 100.00% | Cum. % > ([2]; Pre-separator, cut diam. 10 μm): 0.00%
Compound: Albuterol sulfate

Compound: NC[C@H]1O[C@H](O[C@H]2[C@H](O)[C@@H](O[C@H]3O[C@H](CO)[C@@H](O)[C@H](N)[C@H]3O)[C@H](N)C[C@@H]2N)[C@H](N)C[C@@H]1O [tobramycin]
pulmonary function after administration by inhalation ([3]; inhalation, without severe side effects to kidney functions): significantly improves pulmonary function | serum levels after intravenous administration ([3]; intravenous administration): toxic to the kidneys

Compound: etanercept [Enbrel]
change in electrophoretic mobility / molecular weight of post-aerosol active agent versus control [1]: negligible change | dose forming molecular fragments with elution times of 13 and 25 minutes ([4]; aerosolized with test device): 4.6% | Peak 1 Peak Area % ([4]; aerosolized with test device, 20 actuations): 3.476% and 2.796% | Peak 2 Peak Area % ([4]; aerosolized with test device): 92.112% and 90.789% | Peak 3 Peak Area % ([4]; aerosolized with test device): 0.361% and 0.424% | Peak 4 Peak Area % ([4]; aerosolized with test device, fragment, elution about 13 min): 0.352% and 0.357% | Peak 5 Peak Area % ([4]; aerosolized with test device, fragment, elution about 25 min): 3.428% and 5.130% and 5.123% | Peak 4 Peak Area %, Avg. [4, 7]: 0.3545 | Peak 5 Peak Area %, Avg. [4, 7]: 4.2755 | Peak 1 Peak Area % ([4]; control, Enbrel diluted 4:1 (10 mg/ml), not aerosolized): 2.428% and 3.041% | Peak 2 Peak Area % ([4]; control, not aerosolized): 96.676% and 95.909% | Peak 3 Peak Area % ([4]; control, not aerosolized): 0.373% and 0.351% | Peak 4 Peak Area % ([4]; control, not aerosolized): 0% | Peak 5 Peak Area % ([4]; control, not aerosolized): 0%

Compound: Insulin: insulin, Humalog, 200 units/ml, 3 ml kwikpens
ejected dose forming a fragment which elutes at ~25 minutes ([5]; aerosolized with test device): 2.5% | Peak 1 Peak Area % ([5]; aerosolized with test device, 20 actuations, replicate samples): 27.881% and 28.721% | Peak 2 Peak Area % ([5]; aerosolized with test device, replicate samples): 69.780% and 67.807% | Peak 3 Peak Area % ([5]; aerosolized with test device, replicate samples, fragment, elution ~25 min): 2.184% and 2.797% | Peak 3 Peak Area %, Avg. [5, 7]: 2.4905 | Peak 1 Peak Area % ([5]; control, Kwikpen solution 200 U/ml, not aerosolized): 29.926% | Peak 2 Peak Area % ([5]; control, not aerosolized): 69.630% | Peak 3 Peak Area % ([5]; control, not aerosolized): 0%
